From the Human Domainome abundance scans (Beltran et al. 2025)
± gives the uncertainty stated by the source.

B1: Zinc finger homeobox protein 3, residues 2147 to 2202; numbered along this chain, Q15911 (parent)
chain: RPRTRITDDQLRVLRQYFDINNSPSEEQIKEMADKSGLPQKVIKHWFRNTLFKERQ

Variants of: B1
Test: abundance fitness (aPCA) (normalised: wild type 0, dead -1); higher = more abundant; growth selection in yeast, the domain comes from the species named
Settings: Homo sapiens

Row | Variant | abundance fitness
1 | R55C | -0.313 ± 0.15
2 | K41I | -0.022 ± 0.2
3 | F18R | -0.069 ± 0.064
4 | F18K | -0.039 ± 0.11
5 | F18G | -0.263 ± 0.062
6 | F18M | -0.15 ± 0.1
7 | S36N | 0.018 ± 0.15
8 | S36Y | -0.178 ± 0.12
9 | S36A | 0.045 ± 0.086
10 | S36I | 0.078 ± 0.12
11 | S36W | -0.182 ± 0.084
12 | S36L | 0.019 ± 0.073
13 | P39W | -0.564 ± 0.1
14 | P39N | -0.249 ± 0.22
15 | P39S | 0.045 ± 0.08
16 | P39Y | -0.284 ± 0.34
17 | D8F | -0.204 ± 0.1
18 | D8A | -0.022 ± 0.067
19 | N22H | 0.219 ± 0.15
20 | N22S | 0.001 ± 0.086
21 | N22E | -0.057 ± 0.094
22 | N22Y | -0.076 ± 0.14
23 | L14M | 0.058 ± 0.1
24 | L14S | -0.998 ± 0.11

Row | Variant | abundance fitness
25 | L14T | -0.942 ± 0.12
26 | S23Y | -0.255 ± 0.2
27 | S23P | -0.21 ± 0.15
28 | S23K | -0.07 ± 0.12
29 | Q16E | -0.045 ± 0.091
30 | Q16K | 0.092 ± 0.093
31 | Q16V | -0.162 ± 0.074
32 | Q16N | -0.174 ± 0.29
33 | E54V | -0.159 ± 0.1
34 | K53H | -0.07 ± 0.14
35 | K53V | -0.167 ± 0.087
36 | K53T | 0.017 ± 0.11
37 | G37V | -0.427 ± 0.082
38 | G37H | -0.361 ± 0.16
39 | G37L | -0.278 ± 0.088
40 | F52L | 0.026 ± 0.086
41 | F52W | -0.161 ± 0.1
42 | F52V | 0.05 ± 0.079
43 | F52G | 0.09 ± 0.068
44 | F52R | 0.148 ± 0.075
45 | R5M | 0.138 ± 0.09
46 | R5Q | -0.027 ± 0.1
47 | R5H | 0.074 ± 0.083
48 | R5G | -0.023 ± 0.067

Row | Variant | abundance fitness
49 | R5W | -0.054 ± 0.11
50 | Q56A | 0.09 ± 0.31
51 | H45V | 0.015 ± 0.078
52 | H45S | 0.028 ± 0.086
53 | H45Y | -0.036 ± 0.12
54 | H45K | 0.141 ± 0.11
55 | H45W | 0.028 ± 0.099
56 | H45A | 0.039 ± 0.077
57 | I6S | -0.46 ± 0.098
58 | D34E | 0.207 ± 0.1
59 | D34Y | -0.253 ± 0.12
60 | R3W | -0.57 ± 0.1
61 | R3P | -0.108 ± 0.14
62 | R3E | 0.184 ± 0.089
63 | I43P | -1.05 ± 0.21
64 | I43N | -0.959 ± 0.22
65 | I43L | -0.443 ± 0.097
66 | I43S | -0.987 ± 0.14
67 | L11V | -0.252 ± 0.071
68 | L11H | -0.399 ± 0.13
69 | L11D | -0.182 ± 0.14
70 | R1F | -0.385 ± 0.39
71 | M32V | -0.164 ± 0.092
72 | M32T | -0.584 ± 0.14

Row | Variant | abundance fitness
73 | M32A | -0.338 ± 0.097
74 | M32N | -1.08 ± 0.29
75 | M32F | -0.383 ± 0.23
76 | W46Y | -0.439 ± 0.21
77 | K44I | -0.102 ± 0.15
78 | K44R | -0.069 ± 0.081
79 | K44T | -0.246 ± 0.11
80 | S25T | 0.012 ± 0.097
81 | T7N | -0.204 ± 0.11
82 | T7Y | -0.388 ± 0.13
83 | T7V | -0.208 ± 0.074
84 | T7M | -0.162 ± 0.094
85 | R48F | -0.023 ± 0.16
86 | R48M | -0.06 ± 0.11
87 | R48S | -0.121 ± 0.09
88 | K35D | -0.297 ± 0.13
89 | K35E | -0.168 ± 0.11
90 | K35W | -0.346 ± 0.092
91 | I29A | -0.476 ± 0.078
92 | I29N | -0.44 ± 0.13
93 | I29H | -0.282 ± 0.19
94 | I29Q | -0.225 ± 0.12
95 | I29C | -0.279 ± 0.14
96 | I29P | -0.838 ± 0.17

Row | Variant | abundance fitness
97 | N21V | -0.171 ± 0.071
98 | N21M | -0.103 ± 0.12
99 | N21P | -0.335 ± 0.11
100 | N21A | -0.008 ± 0.074
101 | N21Y | 0.014 ± 0.15
102 | R12P | -0.477 ± 0.086
103 | R12K | 0.051 ± 0.092
104 | R12F | -0.193 ± 0.12
105 | R12C | -0.067 ± 0.084
106 | R12T | -0.205 ± 0.076
107 | Q40K | 0.193 ± 0.12
108 | Q40Y | 0.088 ± 0.32
109 | Q40W | -0.068 ± 0.092
110 | Q28R | -0.221 ± 0.065
111 | Q28Y | -0.385 ± 0.13
112 | Q28C | -0.423 ± 0.089
113 | E27S | 0.024 ± 0.077
114 | E27A | 0.027 ± 0.072
115 | E27V | 0.013 ± 0.074
116 | E27I | -0.05 ± 0.13
117 | E27Y | -0.08 ± 0.13
118 | V42I | -0.074 ± 0.12
119 | V42M | -0.218 ± 0.15
120 | V42D | 0.094 ± 0.15

Row | Variant | abundance fitness
121 | V42F | -0.293 ± 0.18
122 | V42C | 0.058 ± 0.1
123 | P24R | -0.716 ± 0.071
124 | P24D | -0.8 ± 0.11
125 | P24Q | -0.747 ± 0.11
126 | Y17S | -0.207 ± 0.074
127 | Y17P | -0.838 ± 0.1
128 | Y17I | -0.175 ± 0.12
129 | Y17R | -0.369 ± 0.067
130 | K30F | -0.264 ± 0.16
131 | K30T | -0.061 ± 0.1
132 | L51P | -0.224 ± 0.11
133 | L51A | -0.037 ± 0.076
134 | L51H | 0.016 ± 0.13
135 | L51E | -0.116 ± 0.1
136 | R15E | -0.048 ± 0.082
137 | R15P | -0.898 ± 0.091
138 | R15T | -0.023 ± 0.084
139 | R15K | -0.074 ± 0.091
140 | R15D | -0.29 ± 0.12
141 | R15M | -0.023 ± 0.084
142 | R15G | -0.256 ± 0.067
143 | T50N | -0.044 ± 0.15
144 | T50V | -0.078 ± 0.097

Row | Variant | abundance fitness
145 | T50K | 0.094 ± 0.17
146 | D19C | -0.094 ± 0.086
147 | A33H | 0.254 ± 0.4
148 | A33S | -0.054 ± 0.14
149 | A33C | -0.158 ± 0.16
150 | A33E | 0.038 ± 0.18
151 | A33L | -0.511 ± 0.15
152 | L38K | -1.04 ± 0.15
153 | L38H | -1.1 ± 0.38
154 | L38V | -0.008 ± 0.08
155 | L38I | -0.124 ± 0.22
156 | V13I | 0.097 ± 0.073
157 | V13S | -0.033 ± 0.061
158 | V13Q | 0.043 ± 0.076
159 | V13P | -0.587 ± 0.068
160 | V13G | -0.415 ± 0.078
161 | V13R | -0.243 ± 0.067
162 | P2M | 0.171 ± 0.19
163 | P2G | -0.005 ± 0.084
164 | P2R | 0.127 ± 0.091
165 | P2Y | -0.057 ± 0.18
166 | P2E | 0.184 ± 0.14
167 | P2C | -0.608 ± 0.14
